According to publication PMC3311221 (Nature cell biology, 2011):

Biological target: the molecule itself
Assay: SEC + other: glycerol gradient sedimentation

Row | Protein | stoichiometry N
1 | polyhistidine-tagged full length TFG-1 (natural protein, C. elegans, UniProt Q9U1W1 1-486, looked up) MVHSNGAITSTILKARHADVVRKTSLHHANDLTLIDLVLNVQRLLALPSDANFVLKYKDEEGDLVTLAEDSDLLLALHTSGATLDVTVVVDSRAREAVHDVQKQVEQIKLDVGKLLGALSALDVAQIAEQSNTSVANLSAPKQSHHDNIVFQKSFEAAPPSPVPSEKAELPATIQPSVHEQFNHRPAHVEEEIPLENHYAPPPHQQIPDDLNTSFSSQPPPPIEQFGAIPPPNATIPSFPTSNAASPPVQEFAPPPPQQQQQQFQAPPPPMASHSSISSTPVQQQGFAPPQQFGGPPPSGPPSEYGGYAPPQQQQQQFGAPPPQGAPQQGFGAPPQGPPQGGPPQGSFGAPPPQQFHAPSPQSFGGPPPPVSSAPGNFAPPPQSGPPGAFAPPPSAFGAPQGPGGPGGYGPPPPGGPGAPGSYGPPQGGPGGFGPPPPGGPGAYGPPPTGFPPVGAPPPGAAGAPGGNPFARGPSATGYRQSPYQQ | 6
2 | polyhistidine-tagged TFG-1 amino-terminus (amino acids 1-195) (domain or fragment, C. elegans, UniProt Q9U1W1 1-195, looked up) MVHSNGAITSTILKARHADVVRKTSLHHANDLTLIDLVLNVQRLLALPSDANFVLKYKDEEGDLVTLAEDSDLLLALHTSGATLDVTVVVDSRAREAVHDVQKQVEQIKLDVGKLLGALSALDVAQIAEQSNTSVANLSAPKQSHHDNIVFQKSFEAAPPSPVPSEKAELPATIQPSVHEQFNHRPAHVEEEIPL | 8
